Test results taken from patent US11319374B2, “Inhibitors of prototypic galectin dimerization and uses thereof” (INSTITUT NATIONAL DE LA RECHERCHE SCIENTIFIQUE, priority 2015, dated 2022).

Target: T1, hGal-7/Bcl-2 heterodimer (Homo sapiens, UniProt P47929)
T1 construct: host or cells: E. coli BL21 (DE3) (hGal-7)
Experiment: hGal-7/Bcl-2 heterodimer disruption, low-SDS Western blotting with anti-Gal-7 antibody
Format: biochemical
Conditions: hGal-7 and Bcl-2 each 0.5 μM, especially at the highest dose of 500 μM, FIG. 12C
Description: FIGS. 12A to 12C show the dose-dependent disruption of the hGal-7/Bcl-2 heterodimer in the presence of the hGal-7(129-135) peptide. FIGS. 12A and 12B: detection of hGal-7/Bcl-2 heterodimers in the presence of the indicated amounts of recombinant Bcl-2 using an anti-gal-7 antibody (FIG. 12A) or an anti-Bcl-2 antibody (FIG. 12B). FIG. 12C: the recombinant hGal-7 and Bcl-2 (each at 0.5 μM) were incubated with increasing concentrations of hGal-7(129-135) in 20 mM potassium phosphate buffer (pH 7.1). The effect of hGal-7(129-135) on the homodimerization and heterodimerization (with Bcl-2) of hGal-7 was assessed by Western blotting in low-SDS conditions with an anti-Gal-7 antibody.
Production of recombinant hGal-7 and hGal-1. Human Gal-7 cDNA was cloned into pET-22b(+) using Ndel and HindIII restriction enzymes. Human pET-Gal-1 vector was generously donated by Dr. S. Sato (McGill University, QC, Canada). The proteins were produced in E. coli BL21 (DE3) cells at 37° C. Isopropyl p-D-1-thiogalactopyranoside (IPTG) (1 mM) was added to the bacterial culture at OD600nm=0.6-0.7 and then incubated for 4 h at 37° C. to allow protein production. […] Purified fractions were analyzed by SDS-PAGE. […]

T1 sequence (P47929 2-136 limits assumed, one chain of several): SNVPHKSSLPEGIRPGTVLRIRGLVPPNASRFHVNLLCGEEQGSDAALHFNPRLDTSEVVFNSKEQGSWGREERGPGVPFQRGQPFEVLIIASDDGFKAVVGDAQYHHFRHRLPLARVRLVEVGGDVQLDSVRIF

In the case of “H-Leu-Asp-Ser-Val-Arg-Ile-Phe-NH2 (H-LDSVRIF-NH2; listed as Homo sapiens) [hGal-7(129-135), peptide corresponding to residues 129-135 of hGal-7]”, the “amount of hGal-7/Bcl-2 heterodimers” value is reported as “decreased”.
